This note sets out measurements from patent US20150299265A1 (Molecular Partners, published 2015).

The chains are these.
B1: DARPin #16 (designed binder)
chain: MRGSHHHHHHGSDLGIKLLQAANLGQDDEVRELLKAGADVNAKDSIGQTPLHWAARRGHLEIVEVLLKAGADVNAKDEYGVTPLHLAASLGHLEIVEVLLKAGADVNAQDESGETPADLAALHGHEDIAEVLQKLN
notes: monovalent
B2: DARPin #17 (designed binder)
chain: B1 chain with I16L, E32I, K35A, E111T, S112A, E114Q, L122D, H123D, E130V
notes: monovalent
B3: DARPin #19 (designed binder)
chain: MRGSHHHHHHGSDLGKKLLEAARAGQDDEVRELLKAGADVNAKDEYGLTPLYLATAHGHLEIVEVLLKNGADVNAVDAIGFTPLHLAAFIGHLEIAEVLLKHGADVNAQDKSGKTPADLAAGAGHEDIAEVLQKLN
notes: monovalent
B4: DARPin #20 (designed binder)
chain: B3 chain with N69A, H102A, S112F, L119I, H125N
notes: monovalent
B5: DARPin #51 (designed binder)
chain: MRGSHHHHHHGSDLGNKLLIAASVGQDDEVRILLAAGADVNAKDETGWTPLHLAAAWGHLEIVEVLLKAGADVNAKDVKGQTPLHLAAAYGHLEIVEVLLKAGADVNAQDNDGYTPADLAARYGHEDIAEVLQKLN
notes: monovalent
B6: DARPin #10 (designed binder)
chain: MRGSHHHHHHGSDLGVKLLWAASHGQDDEVRILLAAGADVNAKDFFGITPLHQAAWGHLEIVEVLLKAGADVNAKEEDGTTPLHLAATHGHLEIVEVLLKAGADVNAQDWYGTTPADLAAWWGHEDIAEVLQKLN
notes: monovalent
B7: DARPin #18 (designed binder)
chain: MRGSHHHHHHGSDLGKKLLEAARAGQDDEVRILMANGADVNAKDEYGLTPLYLATAHGHLEIVEVLLKNGADVNAVDAIGFTPLHLAAFIGHLEIAEVLLKHGADVNAQDKFGKTAFDISIGNGNEDLAEILQKLN
notes: monovalent
B8: DARPin #21 (designed binder)
chain: MRGSHHHHHHGSDLGKKLLEAARAGQDDEVRILMANGADVNATDIHGHTPLHLAAAMGHLEIVEVLLKNGADVNANDWRGFTPLHLAALNGHLEIVEVLLKNGADVNATDTAGNTPLHLAAWFGHLEIVEVLLKNGADVNAQDKFGKTAFDISIDNGNEDLAEILQKLN
notes: monovalent
B9: DARPin #12 (designed binder)
chain: MRGSHHHHHHGSDLGKKLLEAARAGQDDEVRILMANGADVNAKDFYGITPLHLAAAYGHLEIVEVLLKHGADVNAHDWNGWTPLHLAAKYGHLEIVEVLLKHGADVNAIDNAGKTPLHLAAAHGHLEIVEVLLKYGADVNAQDKFGKTAFDISIDNGNEDLAEILQKLN
notes: monovalent
B10: DARPin #11 (designed binder)
chain: MRGSHHHHHHGSDLGIKLLFAASRGQDDEVRILLAAGADVNAKDFEGITPLHAAARSGHLEIVEVLLKAGADVNAKDVEGWTPLHYAASYGHLEIVEVLLKAGADVNAQDNHGATPADLAAQWGHEDIAEVLQKLN
notes: monovalent
B11: DARPin #14 (designed binder)
chain: MRGSHHHHHHGSDLGAKLLIAATVGQDDEVRILLAAGADVNAKDTIGHTPLHRAAFVGQLEIVEVLLKAGADVNAQDDYGWTPADLAANSGHEDIAEVLQKLN
notes: monovalent
B12: DARPin #15 (designed binder)
chain: B11 chain with I20V, V24S, T45R, H48F, Q59H, Y79F, W81H, N89S, S90L
notes: monovalent
B13: DARPin #59 (designed binder)
chain: MRGSHHHHHHGSDLGVKLLWAAARGQDDEVRELLKAGADVNAKDFQGITPLHIAATNGHLEIVEVLLKAGADVNAKDITGETPLHHAADSGHLEIVEVLLKAGADVNAQDKAGVTPADLAAAWGHEDIAEVLQKLN
notes: monovalent

Positions count from the first letter of the chain named.

The target of the experiment is T1, Recombinant human HER2 ectodomain (human, UniProt P04626 23-652, biotinylated on primary amines (for SPR and crude extract ELISA)).
T1 construct: extracellular domain; also called ErbB2; ectodomain of human HER2; not shown: Flag tag
Kind of experiment: SPR (ProteOn); biotinylated human HER2 on neutravidin chip, monovalent DARPin injected. As for the experimental part:
Protein binding kinetics of interesting purified HER2-binding DARPins were assayed by Surface Plasmon Resonance (SPR) analysis with a ProteOn array system (BioRad) using a setup, where biotinylated human HER2 was immobilized via neutravidin and the interaction was measured by adding free monovalent DARPin. The determination of Kd values was performed according to standard procedures.
SPR was measured using a ProteOn instrument (BioRad) and measurement was performed according standard procedures known to the person skilled in the art. The running buffer was PBS, pH 7.4, containing 0.005% Tween 20®. Neutravidin was covalently immobilized on a GLC chip (BioRad) to a level of about 8000 resonance units (RU). Immobilization of HER2 on the neutravidin coated chip was then performed. […] The signals (i.e. resonance unit (RU) values) of an uncoated reference cell and a reference injection (i.e. injection of running buffer only) were subtracted from the RU traces obtained after injection of […] (double-referencing). From the SRP traces obtained from the on-rate and off-rate measurements the on- and off-rate of the corresponding DARPin HER2 interaction can be determined.
Dissociation constants (Kd) were calculated from the estimated on- and off-rates using standard procedures known to the person skilled in the art.
The Kd is the concentration at which binding is half-saturated. Regarding B1, the Kd amounted to 2.67 nM.

B2: the Kd turned out to be 2.3 nM.

Take B3: the Kd stood at 0.944 nM.

Turning to B4, the Kd was 0.258 nM.

With B5, the Kd stood at 1.3 nM.

B6: the Kd came to 1.03 nM.

Consider B7, for which the Kd came to 0.335 nM.

Consider B8, for which the Kd is 1.65 nM.

As for B9, the dissociation constant Kd was 1.41 nM.

Consider B10, for which the Kd was 0.256 nM.

On to B11, for which the Kd was determined as 1.88 nM.

Turning to B12, the Kd was found to be 0.468 nM.

For B13, the Kd turned out to be 0.0333 nM.
